Assay results: the DeepSol protein solubility set

Assay: soluble on expression in E. coli; label from the status in PepcDB or PDB records

| Sequence | soluble on expression in E. coli |
| --- | --- |
| PPGTVDKKMVEKCWKLMDKVVRLCQNPKLALKNSPPYILDLLPDTYQHLRTILSRYEGKMETLGENEYFRVFMENLMKKTKQTISLFKEGKERMYEENSQPRRNLTKLSLIFSHMLAELKGIFPSGLFQGDTFRITKADAAEFWRKAFGEKTIVPWKSFRQALHEVHPISSGLEAMALKSTIDLTCNDYISVFEFDIFTRLFQPWSSLLRNWNSLAVTHPGYMAFLTYDEVKARLQKFIHKPGSYIFRLSCTRLGQWAIGYVTADGNILQTIPHNKPLFQALIDGFREGFYLFPDGRNQNPDLTGLCEPTPQDHIKVTQEQYELYCEMGSTFQLCKICAENDKDVKIEPCGHLMCTSCLTSWQESEGQGCPFCRCEIKGTEPIVVDPF | soluble |
| MGSDKIHHHHHHMKKEADMIHPIANAPCSWGVDDPKNPNLPAWATVLKEAAQAGYRSIELGPWGYLPSDPASLRAALEQHQLSLVAGTIFDDLVSEAHFPTLVALTHQICRNLSQVAAAEPIPGRPFQPPYLVIIDFGNPERARFAGRGALAPRLNDKDWQRMMEHIIALSTLAWQEYGVRAVIHPHAGGSIEFADEIERLANDIPHDVAGLCLDTGHLYYAGMDPLDWLDRYYHRLDYLHFKDVDPQVYQRAIHEGIDFFTACAEGVMCPLGSGAIDYPAIKDFLARRGYQGWITIEQERDPRHAAGSLQAVTESLRYLRDVGF | not soluble |
| GAMDMLGTSFNNFGISLSHKRYFSGKVDEIIRCTMGKRIVKISSTKINTSILSSVSEQIGENITDWKNDEKKVYVSRVVNQCIDKFCAEHSRKIGDNLRKQIFKQVEKDYRISLDINAAQSSINHLVSGSSYFKKKMDELCEGMNRSVKNDTTSNVANLISDQFFEKNVQYIDLKKLRGNMSDYITNLESPF | soluble |
| AHHHHHHGSVERSKVRVLIAKPGLDGHDRGAKVVARALRDAGYEVIYTGIRQTPEQIVEAVIEEDVDVLGISILSGAHMVLIPKILKLLEEKGIKPGEDILVVAGGIIPPDDAEELKKMGVAEVFGPGTPLKTIIEFIDKNVEKLKKFRSST | soluble |
| MSLDLFRSEPVAQPLAARLRPANLDEYVGQEHLLARGKPLREALEQGALHSMIFWGPPGVGKTTLARLLAQVSDAHFETISAVLSGVKEIRQAVEVAKQHAAQYGRRTILFVDEVHRFNKSQQDAFLPYVEDGTLIFIGATTENPSFELNNALLSRARVYVLKSLDEAALRKLVGRALNEDKGLGKRKLRLPEESFQVLLAAADGDGRRLLNLLENAADLAEDGSEISPELLQNLLGDTRRRFDKGGEAFYDQISALHKSVRGSNPDAALYWFARMLDGGCDPLYIARRVVRMASEEVGNADPRALGLCLSAWDVQERLGSPEGELAVAQAIVYLACAPKSNAVYSAFNAAMRDVAESGSREVPLHLRNAPTKLMKSLGYGEEYRYAHDEPDAYAAGEDYFPEDLEPRRYYQPVPRGLELKIRDKLEHLAELDRTSPRQREGHHHHHH | soluble |
| DKEVVVLGSGDPMFHGIGSTLHRLLPNHSMTVIPQPSSASLACARLGWALDTTSVYSLVTHPIAHLTLAIEQGDRFLVLGRNHESPHEICEHLISLGQSTAEVTVLSDIGSVSETITSGAATDYPSNDSALNVIAIRPLAATRSRVPGLPDSEYVTDGQLTKQHVRALAISALAPKPHETLWDIGGGSGSIAIEWLRSTPQTTAVCFEISEERRERILSNAINLGVSDRIAVQQGAPRAFDDVPDNPD | not soluble |
| RGGSFAKSWRPMTMSYANLSVDKVEHRALVLNTPYSIIRTIGKQGLEEKRFYASEKELEQVFNPIHHLATDTTARFSQLRGRNVMVIIIESFARQYVGRLNQDIPDYKGYTPCFDSISQKGYLFEQAFANGRKSIDAMPSILSSLPSLRSHFITSHYSGNEIEGLGTALGRIGYQSIFLHGAPNGSMGFDAFVKQAGYKRYFGKTEYAHDEDFDGVWGIWDEPFLLHAVDELSRMKQPFVGTLFTLSSHEPFHIPSHREGLFPNEGEPLVQCIGYTDHALGEFFRKASRQTWFENTLFVITADHASGDLRPEYRSAVGR | not soluble |
| KVLTIKSCNIHSGIGIRPHAQIELEYQGKIHKEISEGDGGYDAFMNALTKITNRLGISIPKLIDYEVRIPPGGKTDALVETRITWNKSLDLEEDQTFKTMGVHPDQTVAAVHATEKMLNQILQPWQI | soluble |
| AIAADTVDGKKEEADYKRLHNFPLIRHTDMPEEMRVETMELCVTACEKFATNNESAAKMIKESMDKKFGSSWHVVIGEGFGFEITHEVKNLLYMFFGGSLAVCVWKCS | soluble |
| MGSDKIHHHHHHMAQDIRVFKSKRDIETAVIQLILEEDFSKLTIQQICQKALVSRSTFYSHYLDKYDVVEQLVAKTITQLETIFSQKYQSQVSPENLKDYLADIYQFYQENARLLKALLKTPLTGTGNFEEAFSKLCQTYINHLAATTKDNDHLPPQLLAEIFTANVVTLMKWIIEHGPSENVTHFADWLHDLFLQYLQE | not soluble |
| MGSDKIHHHHHHMNELTEFNARNDLDNELASTVSDILAKAIKEKGKASIAVSGGSTPKGFFSVLSQSDIDWSKVTITLADERWVPIDSEASNTRLVHENLLQNKAEKAKFFHLKQGDELTDETLEDLNVAASKILLPLDVLILGMGEDGHTASLFPCSDQITSGLDETNDAALLKVQPKTAPHQRISFTFASLMTSKNIFLHSCGEGKKTVLTQVLNGDDPFEMPIRAFLQHPSLNTQIFWAP | not soluble |
| MTFMSEVKFETVEQKASYGIGLQMGQQLAGSGLEGLNVAAIAAGIATALVGEQPAISIDEINQALHAIHMRAEEARQEAAKVAASEGEAFLKDNALRPEVTVLESGLQYEVLVEGNGAIPTSDKSVRVHYHGQLVDGTVFDSSVSRGQPAEFPVTGVIRGWVEALQLMPVGSKWKLYIPHNLAYGERGAGAAIPPFAALVFEVELLDIL | not soluble |
| MYKDLEGKVVVITGSSTGLGKSMAIRFATEKAKVVVNYRSKEDEANSVLEEIKKVGGEAIAVKGDVTVESDVINLVQSAIKEFGKLDVMINNAGLENPVSSHEMSLSDWNKVIDTNLTGAFLGSREAIKYFVENDIKGTVINMSSVHEKIPWPLFVHYAASKGGMKLMTETLALEYAPKGIRVNNIGPGAINTPINAEKFADPEQRADVESMIPMGYIGEPEEIAAVAAWLASSEASYVTGITLFADGGMTLYPSFQAGRG | soluble |
| MAHHHHHHMPVAPLHPELQRVLKENRRTRAFDPAAWIEMKCAKLNDYMQRCGLKACVTSVSGGIDSAVVLAMCAHAMRAHNSPIQKNVGLCQPIHSSDWALRRGKENIAACGATEVVVDQTALHTELATLVERAAGIEGGAFARGQLRSYMRTPPGFYVAQLLTQEGTPAVVMGTGNKDEDFYLGYFCKAGDGVVDVQIISDLHKSEVLLVAEVLGVPENTRHAAPSADLWEGQTDEDELGFPYDFVELFTEWYLKQRETTKIKFLNSLCDEARNQFERYVAACELVHRRNAHKLQGQVNL | not soluble |
| SNRLPDDYDPYAVEEPSDEEPALSSSEDEVDVLLHGTPDQKRKLIRECLTGESESSSEDEFEKEMEAELNSTMKTMEDKLSSLGTGSSSGNGKVATAPTRYYDDIYFDSDSEDEDRAVQVTKKKKKKQHKIPTNDELLYDPEKDNRDQAWVDAQRRGYHGLGPQRSREQQPVPNSDAVLNCPACMTTLCLDCQRHESYKTQYRAMFVMNCSINKEEVLRYKASENRKKRRVHKKMRSNQEDAAEKAETDVEEIYHPVMCTECSTEVAVYDKDEVFHFFNVLASHS | soluble |
| MSLANAIRRSIPKLNRALVLPAFRSFHDEFSSKIPLEDIRKQTKGKEQHVPSARSIAAKYQVFRDTDAPVILDVDEERQIHEAGLQQPEKIHDLPDMYSGINLSRGKTGVYEIEDLVTVLRLNSAINIFVCTVPKDIKYVDYMCIVTGRSVRHMRGMAEFVRKVFKMKRHPSDIIPKIEGESSSDWMALDLGNIALHIFSTKAREQYDLESLWSVGSEFDREYNKPSEELVQLFEKHTIYLDDLKPLKKEGHHHHHH | not soluble |
| MSQVSIIIPTLNEAASLGRTLRQLTLLNPPAKEVIVVDGGSEDETIAIAKQNFESFRQATGVQVIFCERRGRSVQMNYGALSATGDILCFLHADTWVPDDLVAVIEKTLAETKVSCGGFISLMTGSQTTRWGISLHNYLKTYYAPLLFKPHLFFQGLRLLFGDQVMFCRRNDFWDCGGFNEELPIMEDGDLCLKLVQKGRIALVNRIVQSSDRRVARWGSWKATAIYLYIGVLWGIGVDANYLKQFYQDIRLEHHHHHH | soluble |
| MGSDKIHHHHHHMSNQPHKPYGTPEPTYSGNKRSLILAGGGMRVAYQAGAIRALIESGLCFNHADGTSGGTMNLAMLLSGLSPIEMCDRWQTLNVKDFVSFIPLEKYLKAWDLLSMGDADGIIDRVFPHLGIDISKINASEGMQGTFNVCNFTHKTNEVIPHDRLDLDLLVAGISLPIFMPPVQKGDYLYMDSVWIKDVNLMEAVRRGADELWVLWCIGNSSEYQTGIFNQYVHMMELSANGAFFEECDRINEINQRILQGETVYGHTQPIKLHLIKPAYPLPLDPDYYLGNIDGATLVDMGYADAKQYLQTMSPAGLPFQPDVTRMHNNLPGMTFRESMAGAFVLNETDPIQGAAKGKAHNSSLSLQLTINICDLKRFLGDTTFTASIAGNISFANFGEHIPFKRGVFNLFAHDHNPGYKYITYELAFEHGNQDYYLVGKKELHNDPGFDLWQDMTTIYTYLHQGTDNNSPIIGSGILTLDVGDVAKCVSGWRITNAKSLTEKTTLLAEFGSFFWGNIWETYQP | not soluble |
| MGSDKIHHHHHHMKSSQPFIYEAHAARVVFGAGSSSQVAAEVERLGAKRALVLCTPNQQAEAERIADLLGPLSAGVYAGAVMHVPIESARDATARAREAGADCAVAVGGGSTTGLGKAIALETGMPIVAIPTTYAGSEVTPVYGLTEAGTKRTGRDPRVLPRTVIYDPALTVGLPRGLSVTSALNAIAHAAEGLYARDANPVMSLMAEEGIRALAAGIPAVFNDPADLDARSQCLYGAWLCGTVLGGVGMALHHKLCHTLGGSFNLPHAETHTIVLPHALAYNAAAVPEAMARIRRATGAGEQSAAATLFDLAQRHGAPVALRDIGMREEDLDRAADIALASPYWNPRPIEREPIRALLQAAYEGVRPD | not soluble |
| MGSSHHHHHHSSGRENLYFQGMIYQPDENRYHTMEYRRCGRSGVKLPAISLGLWHNFGDTTRVENSRALLQRAFDLGITHFDLANNYGPPPGSAECNFGRILQEDFLPWRDELIISTKAGYTMWDGPYGDWGSRKYLIASLDQSLKRMGLEYVDIFYHHRPDPETPLKETMKALDHLVRHGKALYVGISNYPADLARQAIDILEDLGTPCLIHQPKYSLFERWVEDGLLALLQEKGVGSIAFSPLAGGQLTDRYLNGIPEDSRAASGSRFLKPEQITADKLEKVRRLNELAARRGQKLSQMALAWVLRNDNVTSVLIGASKPSQIEDAVGMLANRRFSAAECAEIDAILEGRF | soluble |
| MFLPVLDSLPSDYDLLRKTYSRMKLEWSTHDLISHCVQEEERLTNEKKEHDLVAGKVICDKKRKQYDECLEAVLGN | soluble |
| MSLKAVIFDLDGVITDTAEYHFLAWKHIAEQIDIPFDRDMNERLKGISREESLESILIFGGAETKYTNAEKQELMHRKNRDYQMLISKLTPEDLLPGIGRLLCQLKNENIKIGLASSSRNAPKILRRLAIIDDFHAIVDPTTLAKGKPDPDIFLTAAAMLDVSPADCAAIEDAEAGISAIKSAGMFAVGVGQGQPMLGADLVVRQTSDLTLELLHEEWEQYRIRESEGHHHHHH | soluble |
| MKNENENEICFIAGVGDSNGYGWGIAKELSKRNVKVIFGVWPPVYNIFIKNLESGKFDKDMIINNDNSKRMQILDVLPLDAGFDNYDDIDEDTKNNKRYNNLKNYSIEEVANLIYNKYGKISMLVHSLANGREVQKSLLDTSRDGYLDAISKSSYSLISLCKHFCKFMNSGGSVVSLTYQASQKVVPGYGGGMSSAKAALESDTRVLAYYLGRKYNIRINTISAGPLKSRAATAINKFNNNQKNNMNSSGETDKQNYSFIDYAIDYSEKYAPLKKKLLSTDVGSVASFLLSKESSAVTGQTIYVDNGLNIMFGPDDLFQSSDS | soluble |
